{"source": "patent US20160334404", "proteins": {"B1": {"name": "recombinant lipoprotein-associated phospholipase A2 (rLp-PLA2) expressed in HEK293 cells (protein)", "chain": "FDWQYINPVAHMKSSAWVNKIQVLMAAASFGQTKIPRGNGPYSVGCTDLMFDHTNKGTFLRLYYPSQDNDRLDTLWIPNKEYFWGLSKFLGTHWLMGNILRLLFGSMTTPANWNSPLRPGEKYPLVVFSHGLGAFRTLYSAIGIDLASHGFIVAAVEHRDRSASATYYFKDQSAAEIGDKSWLYLRTLKQEEETHIRNEQVRQRAKECSQALSLILDIDHGKPVKNALDLKFDMEQLKDSIDREKIAVIGHSFGGATVIQTLSEDQRFRCGIALDAWMFPLGDEVYSRIPQPLFFINSEYFQYPANIIKMKKCYSPDKERKMITIRGSVHQNFADFTFATGKIIGHMLKLKGDIDSNVAIDLSNKASLAFLQKHLGLHKDFDQWDCLIEGDDENLIPGTNINTTNQHIMLQNSSGIEKYN"}}, "target": "Q13093", "assay": "estimated from dilution inactivation (residual CAM activity against enzyme concentration), self-association"}
{"protein": "B1", "values": [{"measurement": "concentration at which roughly half is monomer and half aggregate or oligomer", "result": "At the concentration at 2.5 µg/ml or 53 nM, roughly half of rLp-PLA2 is in monomer and half forms the aggregate or oligomer as estimated"}]}
